Results published in patent US5985836A, “Alpha-1 proteinase inhibitor binding peptides” (Bayer Corporation, priority 1998, dated 1999).
Each block holds one substance with its values, some of them ahead of it. Ends that are not written are not given here.

Assays:
A1PI [1] = target: T1, A1PI (Homo sapiens, UniProt P01009); assay: A1PI purification from 5 mg hSA + 1 mg A1PI on peptide column, A1PI mass balance; format: binding; settings: for Mass AlPI Eluted in Acid Eluate: nephelometry; for Mass Protein per Eluate Fraction, 1M NaCl / Mass Protein per Eluate Fraction, 2% Ac. Acid / Mass Protein per Eluate Fraction, 3M NaCl / Mass Protein per Eluate Fraction, Flow / Percent Eluted by Fraction, 1M NaCl / Percent Eluted by Fraction, 2% Ac. Acid / Percent Eluted by Fraction, 3M NaCl / Percent Eluted by Fraction, Flow / Mass Protein per Eluate Fraction, 2% Acetic Acid / Percent Eluted by Fraction, 2% Acetic Acid: A1PI, 5 mg hSA + 1 mg A1PI; for Mass Protein per Eluate Fraction, 1M NaCl / Mass Protein per Eluate Fraction, 2% Ac. Acid / Mass Protein per Eluate Fraction, 3M NaCl / Mass Protein per Eluate Fraction, Flow / Mass Protein per Eluate Fraction, 2% Acetic Acid: * Below detection limit
T1 construct: Human plasma is currently the only approved source of therapeutic AlPI
Outline: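 Mass balance by immunonephelometry of fractions from step elutions (1M NaCl, 3M NaCl, 2% acetic acid, neutralised with Tris) at 865 μl/min. Sample was a mixture of 1 mg A1PI and 5 mg hSA held 10 min on peptide-derivatised Toyopearl columns (0.1 mmole/g) at 4 °C or 20 °C.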

A1PI [2] = target: T1, A1PI; assay: Purification of A1PI from Effluent II+III on peptide column, A1PI mass balance; format: binding; settings: A1PI, 1 ml Eff. II+III, 4° C.
Outline: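 First, 1 ml of the ethanolic Cohn intermediate (20% ethanol, ~1 mg/ml A1PI) is injected and held for a 10 min residence time. Columns are then eluted stepwise at a constant 865 μl/min with 1M NaCl, 3M NaCl and finally 2% acetic acid, all at 4° C.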

Immunoglobulin A (IgA) = assay: Purification from Effluent II+III, IgA mass balance; format: binding, human; settings: 1 ml Eff. II+III, 4° C.
Method: (§1) Sequences 1-11 and 15 were assayed with Effluent II+III (Eff. II+III). Eff. II+III is a process intermediate in the Cohn plasma fractionation process. The feed stream contains 20% (by volume) ethanol, 20-25 mg/ml hSA and approximately 1 mg/ml AlPI. The stream also contains other proteins including anti-thrombin III (AT3), immunoglobin G (IgG), immunoglobin A (IgA), apolipoprotein alpha-1 (Apo A-1), transferrin (Trf), haptoglobin (Hpt), and alpha-1 acid glycoprotein (AAG) at concentrations ranging from 0.1-1 mg/ml.
(§2) The columns were assayed using the same technique as the hSA+AlPI experiments, allowing for a 10 minute residence time followed by a constant flow rate of 865 μl/min with step elutions of 1M NaCl, 3M NaCl, and 2% acetic acid. All experiments were conducted at 4° C. The mass balances for the injection of 1 ml Eff. […] The AlPI was enriched from 3% of the total protein in the feed to upwards of 50% in the acid eluate.

A1PI [3] = target: T1, A1PI; assay: Capture and elution of active A1PI with 2M urea buffer (elastase inhibition activity assay and immunonephelometry); format: binding; settings: 4° C.; for Mass A1PI in Urea Eluate (mg), Activity / Mass A1PI in Urea Eluate (mg), Nephelometry: 1 mg A1PI, eluted with 2M urea, pH 6; for Mass A1PI in Urea Eluate (mg), Activity: elastase inhibition activity assay; for Mass A1PI in Urea Eluate (mg), Nephelometry: immunonephelometry; for Specific Activity: mass of A1PI by activity assay relative to immunonephelometry, urea eluate
Immunoglobulin G (IgG) = assay: Purification from Effluent II+III, IgG mass balance; format: binding, human; settings: 1 ml Eff. II+III, 4° C.
Method: as §1, §2

A1PI [4] = target: T1, A1PI; assay: A1PI binding on peptide-resin column, injection of 1 mg A1PI in equilibration buffer; settings: for Percent AlPI Eluted by Fraction, 1M NaCl / Percent AlPI Eluted by Fraction, 2% Acetic Acid / Percent AlPI Eluted by Fraction, Flowthrough: sequence order, 1 mg AlPI
Outline: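 Percent of total eluted A1PI per fraction (flowthrough, NaCl steps, 2% acetic acid) determined by A280 integration or immunonephelometry. Columns of peptide-derivatized A-Totda-Toyopearl resin (0.1 mmole/g) received 1 mg A1PI at 4 °C or 20 °C, flow 865 or 523 μl/min.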

[5] = target: T2, apolipoprotein alpha-1 (Apo A-1) (Homo sapiens, UniProt P02647); assay: Purification from Effluent II+III, Apo A-1 mass balance; format: binding; settings: 1 ml Eff. II+III, 4° C.
T2 construct: Eff; II+III is a process intermediate in the Cohn plasma fractionation process; tissue Bayer Corporation (Clayton, N.C.); host or cells: plasma fraction: Cohn Effluent II+III
Method: as §1, §2

[6] = 4° C., relative to total eluted
[7] = 20° C., relative to total eluted
[8] = * as in Tables 4, 5 (below detection limit)
[9] = 1 mg A1PI in equilibration buffer, 4° C.
[10] = 1 mg A1PI in equilibration buffer, 20° C.
[11] = Table 19, 4° C., relative to total loaded
[12] = Table 19, 20° C., relative to total loaded

T2 sequence (P02647 19-267): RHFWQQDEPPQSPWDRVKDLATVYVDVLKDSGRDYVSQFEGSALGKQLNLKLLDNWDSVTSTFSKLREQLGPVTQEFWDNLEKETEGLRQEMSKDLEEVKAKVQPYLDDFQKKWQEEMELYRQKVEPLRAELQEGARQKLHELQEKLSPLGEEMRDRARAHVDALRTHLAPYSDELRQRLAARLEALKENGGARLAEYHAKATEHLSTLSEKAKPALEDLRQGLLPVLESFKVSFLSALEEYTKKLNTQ
T1 sequence (P01009 25-418): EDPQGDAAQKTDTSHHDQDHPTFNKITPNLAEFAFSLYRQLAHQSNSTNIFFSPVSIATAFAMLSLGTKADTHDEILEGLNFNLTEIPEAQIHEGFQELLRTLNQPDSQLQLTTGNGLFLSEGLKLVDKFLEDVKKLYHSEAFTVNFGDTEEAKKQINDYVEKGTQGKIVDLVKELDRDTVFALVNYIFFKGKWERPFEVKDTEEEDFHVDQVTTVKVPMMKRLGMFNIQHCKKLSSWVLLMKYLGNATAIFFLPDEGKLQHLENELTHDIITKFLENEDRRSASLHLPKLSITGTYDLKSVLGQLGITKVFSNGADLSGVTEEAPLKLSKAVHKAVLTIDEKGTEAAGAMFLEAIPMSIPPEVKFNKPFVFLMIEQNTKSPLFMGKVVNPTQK

Mass AlPI Eluted in Acid Eluate (A1PI [1]; 250 μg AlPI injected with 5 mg hSA, 20° C.): 0.09 mg
Mass AlPI Eluted in Acid Eluate (A1PI [1]; 500 μg AlPI injected with 5 mg hSA, 20° C.): 0.21 mg
Mass AlPI Eluted in Acid Eluate (A1PI [1]; 1000 μg AlPI injected with 5 mg hSA, 20° C.): 0.30 mg
Mass Protein per Eluate Fraction, 1M NaCl (A1PI [1]; 4° C.): 0.31 mg
Mass Protein per Eluate Fraction, 2% Ac. Acid (A1PI [1]; 4° C.): 0.19 mg
Mass Protein per Eluate Fraction, 3M NaCl (A1PI [1]; 4° C.): 0.02 mg
Mass Protein per Eluate Fraction, Flow (A1PI [1]; 4° C.): 0.19 mg
Percent Eluted by Fraction, 1M NaCl (A1PI [1]; [6]): 44%
Percent Eluted by Fraction, 2% Ac. Acid (A1PI [1]; [6]): 27%
Percent Eluted by Fraction, 3M NaCl (A1PI [1]; [6]): 3%
Percent Eluted by Fraction, Flow (A1PI [1]; [6]): 27%
Mass Protein per Eluate Fraction, 1M NaCl (A1PI [1]; 20° C.): 0.32 mg
Mass Protein per Eluate Fraction, 2% Ac. Acid (A1PI [1]; 20° C.): 0.38 mg
Mass Protein per Eluate Fraction, 3M NaCl (A1PI [1]; 20° C.): 0.02 mg
Mass Protein per Eluate Fraction, Flow (A1PI [1]; 20° C.): 0.07 mg
Percent Eluted by Fraction, 1M NaCl (A1PI [1]; [7]): 41%
Percent Eluted by Fraction, 2% Ac. Acid (A1PI [1]; [7]): 48%
Percent Eluted by Fraction, 3M NaCl (A1PI [1]; [7]): 2%
Percent Eluted by Fraction, Flow (A1PI [1]; [7]): 9%
Percent Eluted by Fraction, 1M NaCl (A1PI [2]): 16%
Percent Eluted by Fraction, 2% Acetic Acid (A1PI [2]): 29%
Percent Eluted by Fraction, 3M NaCl (A1PI [2]): 0%
Percent Eluted by Fraction, Flow (A1PI [2]): 56%
Mass Protein per Eluate Fraction, 1M NaCl (A1PI [2]; [8]): 0.15 mg
Mass Protein per Eluate Fraction, 2% Acetic Acid (A1PI [2]; [8]): 0.28 mg
Mass Protein per Eluate Fraction, Flow (A1PI [2]; [8]): 0.55 mg
Mass A1PI in Urea Eluate (mg), Activity (A1PI [3]): 0.37 mg
Mass A1PI in Urea Eluate (mg), Nephelometry (A1PI [3]): 0.49 mg
Specific Activity (A1PI [3]): 0.75 mg/mg
Percent A1PI Eluted by Fraction Based on Absorbance at 280 nm, 1M NaCl (A1PI [4]; [9]): 74%
Percent A1PI Eluted by Fraction Based on Absorbance at 280 nm, 2% Acetic Acid (A1PI [4]; [9]): 26%
Percent A1PI Eluted by Fraction Based on Absorbance at 280 nm, Flowthrough (A1PI [4]; [9]): 0%
Percent A1PI Eluted by Fraction, 1M NaCl (A1PI [4]; [10]): 55%
Percent A1PI Eluted by Fraction, 2% Acetic Acid (A1PI [4]; [10]): 45%
Percent A1PI Eluted by Fraction, Flowthrough (A1PI [4]; [10]): 0%
Percent Eluted by Fraction, 1M NaCl [5]: 60%
Percent Eluted by Fraction, 2% Acetic Acid [5]: 0%
Percent Eluted by Fraction, 3M NaCl [5]: 0%
Percent Eluted by Fraction, Flow [5]: 40%
Mass Protein per Eluate Fraction, 1M NaCl [5, 8]: 0.34 mg
Mass Protein per Eluate Fraction, Flow [5, 8]: 0.22 mg
Substance: PYWIVR
Percent Eluted by Fraction, 1M NaCl (Immunoglobulin A (IgA)): 57%
Percent Eluted by Fraction, 2% Acetic Acid (Immunoglobulin A (IgA)): 22%
Percent Eluted by Fraction, 3M NaCl (Immunoglobulin A (IgA)): 0%
Percent Eluted by Fraction, Flow (Immunoglobulin A (IgA)): 21%
Mass Protein per Eluate Fraction, 1M NaCl (Immunoglobulin A (IgA); [8]): 0.22 mg
Mass Protein per Eluate Fraction, 2% Acetic Acid (Immunoglobulin A (IgA); [8]): 0.08 mg
Mass Protein per Eluate Fraction, Flow (Immunoglobulin A (IgA); [8]): 0.08 mg
Percent Eluted by Fraction, 1M NaCl (Immunoglobulin G (IgG)): 10%
Percent Eluted by Fraction, 2% Acetic Acid (Immunoglobulin G (IgG)): 0%
Percent Eluted by Fraction, 3M NaCl (Immunoglobulin G (IgG)): 0%
Percent Eluted by Fraction, Flow (Immunoglobulin G (IgG)): 90%
Mass Protein per Eluate Fraction, 1M NaCl (Immunoglobulin G (IgG); [8]): 0.03 mg
Mass Protein per Eluate Fraction, Flow (Immunoglobulin G (IgG); [8]): 0.30 mg

Mass Protein per Eluate Fraction, 1M NaCl (A1PI [1]; Table 19, 4° C.): 0.14 mg
Mass Protein per Eluate Fraction, 2% Acetic Acid (A1PI [1]; Table 19, 4° C.): 0.43 mg
Mass Protein per Eluate Fraction, Flow (A1PI [1]; Table 19, 4° C.): 0.31 mg
Percent Eluted by Fraction, 1M NaCl (A1PI [1]; [11]): 16%
Percent Eluted by Fraction, 2% Acetic Acid (A1PI [1]; [11]): 49%
Percent Eluted by Fraction, 3M NaCl (A1PI [1]; [11]): 0%
Percent Eluted by Fraction, Flow (A1PI [1]; [11]): 35%
Mass Protein per Eluate Fraction, 1M NaCl (A1PI [1]; Table 19, 20° C.): 0.00 mg
Mass Protein per Eluate Fraction, 2% Acetic Acid (A1PI [1]; Table 19, 20° C.): 0.65 mg
Mass Protein per Eluate Fraction, Flow (A1PI [1]; Table 19, 20° C.): 0.09 mg
Percent Eluted by Fraction, 1M NaCl (A1PI [1]; [12]): 0%
Percent Eluted by Fraction, 2% Acetic Acid (A1PI [1]; [12]): 88%
Percent Eluted by Fraction, 3M NaCl (A1PI [1]; [12]): 0%
Percent Eluted by Fraction, Flow (A1PI [1]; [12]): 12%
Mass A1PI in Urea Eluate (mg), Activity (A1PI [3]): 0.56 mg
Mass A1PI in Urea Eluate (mg), Nephelometry (A1PI [3]): 0.71 mg
Specific Activity (A1PI [3]): 0.79 mg/mg
Percent AlPI Eluted by Fraction, 1M NaCl (A1PI [4]; 4° C.): 29%
Percent AlPI Eluted by Fraction, 2% Acetic Acid (A1PI [4]; 4° C.): 71%
Percent AlPI Eluted by Fraction, Flowthrough (A1PI [4]; 4° C.): 0%
Percent AlPI Eluted by Fraction, 1M NaCl (A1PI [4]; 20° C.): 3%
Percent AlPI Eluted by Fraction, 2% Acetic Acid (A1PI [4]; 20° C.): 97%
Percent AlPI Eluted by Fraction, Flowthrough (A1PI [4]; 20° C.): 0%
Substance: RVLFIH: reversed sequence of VIFLVR with C-terminal His
